# From IntAct's records for PubMed 17235283
# B1: Lymphocyte cytosolic protein 2 (Homo sapiens), Q13094 (parent)
# chain: MALRNVPFRSEVLGWDPDSLADYFKKLNYKDCEKAVKKYHIDGARFLNLTENDIQKFPKLRVPILSKLSQEINKNEERRSIFTRKPQVPRFPEETESHEEDNGGWSSFEEDDYESPNDDQDGEDDGDYESPNEEEEAPVEDDADYEPPPSNDEEALQNSILPAKPFPNSNSMYIDRPPSGKTPQQPPVPPQRPMAALPPPPAGRNHSPLPPPQTNHEEPSRSRNHKTAKLPAPSIDRSTKPPLDRSLAPFDREPFTLGKKPPFSDKPSIPAGRSLGEHLPKIQKPPLPPTTERHERSSPLPGKKPPVPKHGWGPDRRENDEDDVHQRPLPQPALLPMSSNTFPSRSTKPSPMNPLPSSHMPGAFSESNSSFPQSASLPPYFSQGPSNRPPIRAEGRNFPLPLPNKPRPPSPAEEENSLNEEWYVSYITRPEAEAALRKINQDGTFLVRDSSKKTTTNPYVLMVLYKDKVYNIQIRYQKESQVYLLGTGLRGKEDFLSVSDIIDYFRKMPLLLIDGKNRGSRYQCTLTHAAGYP
# Variants of: B1
# Settings: with stam1_human STAM
row,Variant,effect of a mutation on the interaction
1,S234P,decreasing interaction

# Variants of: B1
# Settings: with stam2_human STAM2, O75886
row,Variant,effect of a mutation on the interaction
1,S234P,decreasing interaction

# Variants of: B1
# Settings: with grb2_human GRB2, P62993
# Sequence of grb2_human GRB2, P62993 (P62993 whole entry, looked up): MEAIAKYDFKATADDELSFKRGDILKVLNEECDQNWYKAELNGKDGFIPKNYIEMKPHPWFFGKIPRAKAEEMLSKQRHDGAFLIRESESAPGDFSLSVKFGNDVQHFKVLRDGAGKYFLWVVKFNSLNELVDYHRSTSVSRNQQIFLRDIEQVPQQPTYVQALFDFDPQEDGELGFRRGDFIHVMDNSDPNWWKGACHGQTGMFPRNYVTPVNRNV
row,Variant,effect of a mutation on the interaction
1,S238R,decreasing interaction

# Variants of: B1
# Settings: with stam1_human STAM
# Remark: another data set of the same source
row,Variant,effect of a mutation on the interaction
1,S238R,decreasing interaction

# Variants of: B1
# Settings: with stam2_human STAM2, O75886
# Remark: another data set of the same source
row,Variant,effect of a mutation on the interaction
1,S238R,decreasing interaction

# Variants of: B1
# Settings: with grb2_human GRB2, P62993
# Remark: another data set of the same source
row,Variant,effect of a mutation on the interaction
1,T239P,disrupting interaction

# Variants of: B1
# Settings: with stam1_human STAM
# Remark: another data set of the same source
row,Variant,effect of a mutation on the interaction
1,T239P,disrupting interaction

# Variants of: B1
# Settings: with stam2_human STAM2, O75886
# Remark: another data set of the same source
row,Variant,effect of a mutation on the interaction
1,T239P,disrupting interaction
